Assay results from patent publication EP3409295A1 (priority 2016, dated 2017).
Where two headings read alike, the source gives them in different places.

How the values were obtained:
ICR mice [1] = conditions: mouse, in vivo, iv
ICR mice [2] = test: Tail flick test (heat radiation pain tester); format: in vivo; conditions: tail vein, morphine 5 mg/kg, other doses as in the writhing test
rats = conditions: rat, in vivo
in vivo = conditions: female, SD, rat, iv, 5 mg/kg
[3] = SD rats; for F: oral 50 mg/kg versus intravenous 10 mg/kg
ICR mice [4] = conditions: mouse, in vivo, iv; remark: listed apart in the source
[5] = intravenous administration, 10 mg/kg

| Compound | level at 10 min (in vivo) [ng/mL] | level at 1 h (in vivo) [ng/mL] | level at 3 h (in vivo) [ng/mL] | tissue level at time at 10 min (in vivo) [ng/g] | tissue level at time at 1 h (in vivo) [ng/g] | tissue level at time at 3 h (in vivo) [ng/g] | AUCINF [3, 5] [ng·h/mL] | AUClast [3, 5] [ng·h/mL] | CL [3, 5] [mL/min/k g] | MRTINF [3, 5] [h] | T1/2 [3, 5] [h] | Vss [3, 5] [L/kg] | Vz [3, 5] [L/kg] | F [3] [%] | AUCINF ([3]; oral administration, 50 mg/kg) [ng·h/mL] | AUClast ([3]; oral administration, 50 mg/kg) [ng·h/mL] | Cmax ([3]; oral administration, 50 mg/kg) | T1/2 ([3]; oral administration, 50 mg/kg) [h] | Tmax ([3]; oral administration, 50 mg/kg) [h] | other results |
| --- | --- | --- | --- | --- | --- | --- | --- | --- | --- | --- | --- | --- | --- | --- | --- | --- | --- | --- | --- | --- |
| COc1ccc2c3c1O[C@H]1[C@@H](O)C=C[C@H]4[C@@H](C2)N(C)CC[C@@]341 [Codeine, codeine] |  |  |  |  |  |  |  |  |  |  |  |  |  |  |  |  |  |  |  | Number of Writhing (ICR mice [1]; 30 mg/kg): 13.4±3.1 |
| CN1CC[C@]23c4c5ccc(O)c4O[C@H]2[C@@H](O)C=C[C@H]3[C@H]1C5 [Morphine, morphine] |  |  |  |  |  |  |  |  |  |  |  |  |  |  |  |  |  |  |  | Number of Writhing (ICR mice [1]; 5 mg/kg): 10.2±2.1; Heat pain value (ICR mice [2]; 0 hr (base value before administration)): 14.0 ± 2.2 s; Heat pain value (ICR mice [2]; 0.25 hr after administration): 22.7 ± 5.1 s; Heat pain value (ICR mice [2]; 1hr after administration): 42.4 ± 5.1 s; Heat pain value (ICR mice [2]; 2 hr after administration): 29.0 ± 4.7 s; Heat pain value (ICR mice [2]; 6 hr after administration): 13.5 ± 1.2 s; Heat pain value (ICR mice [2]; 24 hr after administration): 13.8 ± 1.5 s; Nose-pokes (rats): 24.0±2.2 |
| COc1ccc2c3c1O[C@H]1C(=O)CC[C@@]4(O)[C@@H](C2)N(C)CC[C@]314 [Oxycodone, oxycodone] |  |  |  |  |  |  |  |  |  |  |  |  |  |  |  |  |  |  |  | Number of Writhing (ICR mice [1]; 5 mg/kg): 9.9±3.2 |
| CN1CC[C@]23c4c5ccc(O)c4O[C@H]2[C@@H](OCCO[C@H]2C=C[C@H]4[C@H]6Cc7ccc(O)c8c7[C@@]4(CCN6C)[C@H]2O8)C=C[C@H]3[C@H]1C5 [α-6-O-PEG1-(morphine)2] | 891 | 138 | 38 | 687 | 299 | 183 | 98 | 83 | 342 | 2.46 | 2.59 | 47.3 | 72 | 3.7 | 92 | 78 | 56 | 11 | 1.0 |  |
| CN1CC[C@]23c4c5ccc(O)c4O[C@H]2[C@@H](OCCOCCO[C@H]2C=C[C@H]4[C@H]6Cc7ccc(O)c8c7[C@@]4(CCN6C)[C@H]2O8)C=C[C@H]3[C@H]1C5 [α-6-O-PEG2-(morphine)2] | 1210 | 123 | 43 | 554 | 342 | 221 | 107 | 90 | 307 | 2.08 | 2.88 | 37.2 | 52.1 | 4.8 | 35 | 27 | 18 | 4.0 | 2 |  |
| CN1CC[C@]23c4c5ccc(O)c4O[C@H]2[C@@H](OCCOCCOCCO[C@H]2C=C[C@H]4[C@H]6Cc7ccc(O)c8c7[C@@]4(CCN6C)[C@H]2O8)C=C[C@H]3[C@H]1C5 [α-6-O-PEG3-(morphine)2] | 1020 | 119 | 32 | 387 | 262 | 167 | 112 | 104 | 296 | 2.18 | 2.31 | 27.8 | 43 | 3.2 | 18 | 15 | 12 | 5.1 | 2 |  |
| COc1ccc2c3c1O[C@H]1[C@@H](OCCOCCOCCOCCO[C@H]4C=C[C@H]5[C@H]6Cc7ccc(OC)c8c7[C@@]5(CCN6C)[C@H]4O8)C=C[C@H]4[C@@H](C2)N(C)CC[C@@]341 [α-6-O-PEG4-(codeine)2] | 1660 | 233 | 43 | 121 | 110 | 107 |  |  |  |  |  |  |  |  |  |  |  |  |  | Number of Writhing (ICR mice [4]; 30 mg/kg): 31.3±4.1 |
| CN1CC[C@]23c4c5ccc(O)c4O[C@H]2[C@@H](OCCOCCOCCOCCO[C@H]2C=C[C@H]4[C@H]6Cc7ccc(O)c8c7[C@@]4(CCN6C)[C@H]2O8)C=C[C@H]3[C@H]1C5 [α-6-O-PEG4-(morphine)2] | 1120 | 114 | 42 | 226 | 198 | 164 | 137 | 122 | 238 | 6.12 | 4.71 | 64.3 | 94.3 | 17.1 | 81 | 70 | 47 | 6.4 | 3 | Number of Writhing (ICR mice [4]; 10 mg/kg): 20.1±2.3 |
| CN1CC[C@]23c4c5ccc(O)c4O[C@H]2[C@@H](OCCOCCOCCOCCOCCO[C@H]2C=C[C@H]4[C@H]6Cc7ccc(O)c8c7[C@@]4(CCN6C)[C@H]2O8)C=C[C@H]3[C@H]1C5 [α-6-O-PEG5-(morphine)2] | 926 | 101 | 51 | 125 | 123 | 95 | 128 | 109 | 261 | 3.52 | 3.71 | 55.2 | 84 | 28.2 | 156 | 129 | 75 | 7.8 | 2.0 |  |
| COc1ccc2c3c1O[C@H]1[C@@H](OCCOCCOCCOCCOCCOCCO[C@H]4C=C[C@H]5[C@H]6Cc7ccc(OC)c8c7[C@@]5(CCN6C)[C@H]4O8)C=C[C@H]4[C@@H](C2)N(C)CC[C@@]341 [α-6-O-PEG6-(codeine)2] | 1740 | 445 | 67 | 102 | 100 | 97 |  |  |  |  |  |  |  |  |  |  |  |  |  | Number of Writhing (ICR mice [4]; 30 mg/kg): 34.1±3.3 |
| CN1CC[C@]23c4c5ccc(O)c4O[C@H]2[C@@H](OCCOCCOCCOCCOCCOCCO[C@H]2C=C[C@H]4[C@H]6Cc7ccc(O)c8c7[C@@]4(CCN6C)[C@H]2O8)C=C[C@H]3[C@H]1C5 [α-6-O-PEG6-(morphine)2] | 1200 | 123 | 72 | 163 | 133 | 111 | 158 | 144 | 204 | 3.22 | 3.42 | 38.6 | 57.7 | 21.2 | 84 | 73 | 54 | 4.8 | 3 | Number of Writhing (ICR mice [4]; 10 mg/kg): 24.3±3.4 |
| CN1CC[C@]23c4c5ccc(O)c4O[C@H]2[C@@H](OCCOCCOCCOCCOCCOCCOCCO[C@H]2C=C[C@H]4[C@H]6Cc7ccc(O)c8c7[C@@]4(CCN6C)[C@H]2O8)C=C[C@H]3[C@H]1C5 [α-6-O-PEG7-(morphine)2] | 1170 | 117 | 71 | 177 | 111 | 105 |  |  |  |  |  |  |  |  |  |  |  |  |  |  |
| CN1CC[C@]23c4c5ccc(O)c4O[C@H]2[C@@H](OCCOCCOCCOCCOCCOCCOCCOCCO[C@H]2C=C[C@H]4[C@H]6Cc7ccc(O)c8c7[C@@]4(CCN6C)[C@H]2O8)C=C[C@H]3[C@H]1C5 [α-6-O-PEG8-(morphine)2] | 1230 | 167 | 90 | 140 | 153 | 127 | 188 | 162 | 221 | 10.8 | 6.83 | 84.7 | 125.2 | 7.6 | 31 | 22 | 22 | 5.2 | 3 |  |
| CN1CC[C@]23c4c5ccc(O)c4O[C@H]2[C@@H](OCCOCCOCCOCCOCCOCCOCCOCCOCCO[C@H]2C=C[C@H]4[C@H]6Cc7ccc(O)c8c7[C@@]4(CCN6C)[C@H]2O8)C=C[C@H]3[C@H]1C5 [α-6-O-PEG9-(morphine)2] | 1230 | 201 | 101 | 152 | 125 | 123 | 259 | 221 | 166 | 7.91 | 8.33 | 60.1 | 92 | 5.2 | 17 | 11 | 11 | 11.5 | 3.0 |  |
| COCCOCCOCCOCCO[C@H]1C=C[C@H]2[C@H]3Cc4ccc(O)c5c4[C@@]2(CCN3C)[C@H]1O5 [α-6-O-mPEG4-morphine, reference compound] |  |  |  |  |  |  |  |  |  |  |  |  |  |  |  |  |  |  |  | Number of Writhing (ICR mice [4]; 10 mg/kg): 12.1±2.3 |
| COCCOCCOCCOCCOCCOCCO[C@H]1C=C[C@H]2[C@H]3Cc4ccc(O)c5c4[C@@]2(CCN3C)[C@H]1O5 [α-6-O-mPEG6-morphine, reference compound] |  |  |  |  |  |  |  |  |  |  |  |  |  |  |  |  |  |  |  | Number of Writhing (ICR mice [4]; 10 mg/kg): 15.3±3.4 |
